Where two headings read alike, the source gives them in different places.
T1: Plasmodium falciparum histidine-rich protein II (HRP-II) (Plasmodium falciparum, UniProt P05227 22-332)
T1 construct: Coating antigen of all ELISAs; also called HRP-II protein; MA-HRPII Ag protein
T1 sequence (looked up): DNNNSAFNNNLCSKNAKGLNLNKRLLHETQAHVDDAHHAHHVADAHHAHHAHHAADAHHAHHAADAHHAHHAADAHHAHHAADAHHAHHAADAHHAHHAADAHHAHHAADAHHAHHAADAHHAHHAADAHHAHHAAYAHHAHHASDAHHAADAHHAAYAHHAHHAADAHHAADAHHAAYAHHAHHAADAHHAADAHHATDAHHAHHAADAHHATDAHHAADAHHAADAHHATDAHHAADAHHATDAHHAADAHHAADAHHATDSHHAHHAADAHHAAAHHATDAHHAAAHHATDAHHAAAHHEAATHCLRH

B1: Anti-HRP-II 3R5 monoclonal antibody (recombinant, expressed in CHO cells; WT) (antibody, mouse IgG2b, kappa, V domains shown)
VH: EVQLQQSGPEVVKPGASVKISCKASGSTLTEYYMNWVKQSHGKGLEWIGDLNPINGGTPYQQKFRDKATLTVDKSSNTAYMELRSLTSEDSALYYCTRGAEEYWGQGTTLTVSS
VL: DVVLTQTPLSLSVTIGQPASISCKSSQSIIYSNGKIYINWFQQRPGQSPKRLMYQLSKIDPGIPDRFSGSGSETDFTLKISRVEAEDLGVYYCLQGTYSPNTFGGGTKLEIKR
notes: Mouse IgG; also called Anti-HRP-H3R5; CHO transient-transfected cell supernatant
B2: Mutation 1 (antibody, mouse IgG2b, kappa, V domains shown)
VH: EVQLQQSGPEVVKPGASVKISCKASGSTLTDYYMNWVKQSHGKGLEWIGDLNPINGGTAYQQKFRDKATLTVDKSSNTAYMELRSLTSEDSALYYCTRGAEDYWGQGTTLTVSS
VL: DVVLTQTPLSLSVTIGQPASISCKSSQSIIYSNGKIYLNWFQQRPGQSPKRLMYQLSKLDPGIPDRFSGSGSETDFTLKISRVEAEDLGVYYCLQGTYSPQTFGGGTKLEIKR
notes: also called Variant 1

How the values were obtained:
[1] = target: T1, Plasmodium falciparum histidine-rich …; assay: indirect ELISA, four antigen coating concentrations
[2] = target: T1, Plasmodium falciparum histidine-rich …; assay: as above; remark: listed apart in the source
[3] = target: T1, Plasmodium falciparum histidine-rich …; assay: indirect ELISA, coated MA-HRPII Ag 1 ug/ml, antibody 8 ng/ml
[4] = target: T1, Plasmodium falciparum histidine-rich …; assay: indirect ELISA, coated MA-HRPII Ag 1 ug/ml, antibody 40 ng/ml
[5] = target: T1, Plasmodium falciparum histidine-rich …; assay: indirect ELISA, coated MA-HRPII Ag 1 ug/ml, antibody 1.6 ng/ml
[6] = target: T1, Plasmodium falciparum histidine-rich …; assay: indirect ELISA, coated MA-HRPII Ag 1 ug/ml, antibody 200 ng/ml
[7] = target: T1, Plasmodium falciparum histidine-rich …; assay: indirect ELISA, coated MA-HRPII Ag 1 ug/ml, antibody 0.32 ng/ml
[8] = target: T1, Plasmodium falciparum histidine-rich …; assay: indirect ELISA, coated MA-HRPII Ag 1 ug/ml, antibody 1000 ng/ml
[9] = target: T1, Plasmodium falciparum histidine-rich …; assay: indirect ELISA, four antigen coating concentrations; remark: listed apart in the source
Description: The OD values corresponding to different antibody concentrations with different coating concentrations are obtained. Under the same coating concentration, the antibody concentrations are used as an abscissa, the 00 values are used as an ordinate, and a logarithmic plot is made. […] An average value thereof is taken and a reciprocal thereof is calculated to get the affinity constant KD.

| Binder | Kd [1] | Kd [2] | OD value at 450 nm (ref 630 nm) [3] | OD value at 450 nm (ref 630 nm) [4] | OD value at 450 nm (ref 630 nm) [5] | OD value at 450 nm (ref 630 nm) [6] | OD value at 450 nm (ref 630 nm) [7] | OD value at 450 nm (ref 630 nm) [8] | Kd [9] |
| --- | --- | --- | --- | --- | --- | --- | --- | --- | --- |
| B1 | 0.633 nM | 0.633 nM | 0.122 OD | 0.402 OD | 0.053 OD | 1.97 OD | 0.058 OD | 2.34 OD |  |
| B2 |  |  | 0.288 OD | 0.695 OD | 0.16 OD | 2.4 OD | 0.089 OD | 2.52 OD | 0.0521 nM |
